Assay results published in PMC2898215.

Target: streptavidin (UniProt P22629 25-183)
Experiment: capillary electrophoresis

Chain of streptavidin (P22629 25-183): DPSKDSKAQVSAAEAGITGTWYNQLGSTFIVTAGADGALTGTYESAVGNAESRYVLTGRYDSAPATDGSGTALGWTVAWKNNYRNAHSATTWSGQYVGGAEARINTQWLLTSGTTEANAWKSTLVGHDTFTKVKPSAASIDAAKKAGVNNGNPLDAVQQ

**Q.** Which binding signal does the source give for TAGGACAAACGCACACGGCGCAGTGTTTTGACCTA (structured_DNA) [S10-103 minimal] here?
**A.** 48 % bound

**Q.** For CAAACCTCGCGCCGATTGCAGGCAGGTTTG (structured_DNA) [S10-113 minimal], which binding signal is on record?
**A.** 50 % bound

**Q.** CACGTAACGCATACGCCGCAGTATTTATGTG (structured_DNA) [S10-101 minimal] was tested. Which binding signal did it give?
**A.** > 70 % bound

**Q.** Which binding signal does the source give for CTGTGAGACGACGCACCGGTCGCAGGTTTTGTCTCACAG (structured_DNA) [NRR] here?
**A.** 33 % bound

**Q.** Which binding signal does the source give for CTTGTGTTTGCTCCCCGACGCAGGGGACACAAG (structured_DNA) [S10-115 minimal] here?
**A.** 60 % bound

**Q.** How did the binding signal turn out when CATATTTAGCGCGTGTGTCGCAACACCTATATATG (structured_DNA) [S10-104 minimal] was run?
**A.** 53 % bound
